From patent US7183376 come the findings set out here.

This assay deals with human CD28 receptor on T cells (human, UniProt P10747 19-220). Description: cell-based or functional assay.

B1: Round 2 CD28BP-15 (ligand)
chain: ITPKSVTKRVKETVMLSCDYNTSTEELTSLRIYWQKDSKMVLAILPGKVQVWPEYKNRTITDMNDNPRIVILALRPSDSGTYTCVIQKPVLKGAYKLEHLASVRLMIRADFPVPTINDLGNPSPNIRRLICSTSGGFPRPHLYWLENGEELNATNTTVSQDPGTELYMISSELDFNVTNNHSIVCLIKYGELSVSQIFPWSKPKQEPPIDQLPFWVIIPVSGALVLTAVVLYCLACRHVARWKRTRRNEETVGTERLSPIYLGSAQSSG
As to B1, the “T cell proliferation (3H-thymidine), transfected 293 HEK cells” value was roughly 3 fold.
